According to patent US10561706B2, “Isolated polypeptide and compositions comprising same” (B. G. NEGEV TECHNOLOGIES AND APPLICATIONS LTD., AT …, priority 2015, dated 2020):

Key:
[1] = biological target: T1, SOD1^G93A (Homo sapiens, UniProt P00441, G94A); assay: ThT aggregation assay of SOD1^G93A with SOD1-derived peptides; type: biochemical; details: for ThT response / amyloid-like aggregation of SOD1^G93A on co-incubation with peptide: SOD1^G93A 50 μM, up to 64 h
T1 construct: 6His (N); made in house; host or cells: E. coli BL21
Experimental: Prior to the aggregation assay, all mixtures containing protein and/or peptide were filtered through a 0.22 μm Millex-GV (PVDF) syringe filter, 4 mm (Millipore, USA). SOD1^G93A (50 μM) or peptide (600 μM) were incubated in 200 μl of 20 mM […] buffer, pH 7.0, 0.1 M NaCl, 5 mM EDTA, 1 mM TCEP, and 1% DMF in the presence of 50 μM Thioflavin T (Sigma Aldrich, Israel) in a black 96-well plate at 37° C. with continuous shaking (set to fast) using a SpectraMax Paradigm (Molecular Devices) ELISA reader. The fluorescence (Exc. 440 nm; Em. 485 nm) was measured at 5 min intervals.
(§1) The effect of the binding of SOD1-derived peptides to misfolded SOD1 on kinetics of SOD1 aggregation was tested. The time course of SOD1^G93A aggregation was followed by monitoring the fluorescence of a thioflavin T (ThT) probe.

[2] = biological target: T1, SOD1^G93A; assay: TEM analysis of SOD1^G93A aggregate morphology; type: biochemical; details: for morphology of SOD1^G93A aggregates by TEM versus SOD1^G93A alone: co-incubation with peptide, end of aggregation assay (FIG. 4B); for morphology of SOD1^G93A aggregates by TEM: 64 h at 37° C.
Experimental: Samples for TEM imaging were prepared as follows: at the end of the aggregation assay, 2.5 μl samples (diluted 5-fold) were deposited on a carbon-coated copper 300 mesh. After 1 min, the excess liquid was carefully blotted by a filter paper. Followed 1 min drying at the ambient temperature, 5 μl of 2% uranyl acetate was added. After 1 min, the excess of the salt solution was carefully removed with a filter paper. The imaging was performed using a Tecnai G2 12 BioTWIN (FEI) transmission electron microscope with an acceleration voltage of 120 kV. Depending on the aggregate size, different magnifications were used. The visible features were sensitive to the electron beam exposure, indicating their organic origin.
as §1

[3] = biological target: T1, SOD1^G93A; assay: Peptide binding to fluorescently labeled SOD1^G93A by microscale thermophoresis (MST); details: SOD1^G93A 300 nM, 1.5 h at r.t., peptide 0-100 μM
Text: (§2) Peptides were synthesized by GL Biochem Ltd. (Shanghai, China). Peptide identity and purity (>90%) was confirmed by MS and HPLC analyses. For microscale thermophoresis (MST) analysis, the proteins (SOD1^WT and SOD1^G93A) were labeled with BLUE fluorescent dye NT-495-NHS (lysine chemistry) using a Monolith NT protein labeling kit Blue-NETS (Nano Temper Technologies, Munchen, Germany) at a protein (monomer):dye ratio of 1:3 as recommended by the manufacturer.
(§3) The assessment of peptide binding to the proteins was carried out using Monolith NT.115 (NanoTemper Technologies, Munchen, Germany). […] The binding data were analyzed by a non-linear regression using a logistic (three parameter) function implemented in Prism6 (GraphPad) program.
(§4) The binding of synthetic peptides to fluorescently labeled SOD1^WT or SOD1^G93A was assessed using a microscale thermophoresis technique (MST). Two overlapping peptides, designated SE-11 (SEQ ID NO: 6) (SOD1 aa. 90-109, […]) and SE-12 (SEQ ID NO: 7) (SOD1 aa. 106-125, […]), inflicted a specific, dose-dependent increase in the fluorescence of the target proteins (FIGS. 3A-D).

[4] = biological target: T2, SOD1^WT (Homo sapiens, UniProt P00441); assay: Peptide binding to fluorescently labeled SOD1^WT by microscale thermophoresis (MST); details: SOD1^WT 200 nM, 1.5 h at r.t., peptide 0-100 μM
T2 construct: 6His (N); made in house; host or cells: E. coli BL21
Text: as §2, §3, §4

[5] = biological target: T2, SOD1^WT; assay: Immunoprecipitation (B8H10 mAb) analysis of SOD1^WT misfolding; type: biochemical; details: peptide 600 μM, 4 or 37° C.; effect more prominent at 4° C.
Experimental: Purified recombinant SOD1^G93A or SOD1^WT proteins […] were incubated for 4 h in 50 mM Tris-HCl buffer, pH 7.4, 150 mM NaCl, 1 mM EDTA, in the presence or absence of peptide SE-12 (SEQ ID NO: 7) (600 μM) at 4 or 37° C. After incubation, 10 μg of SOD1 proteins were transferred into immunoprecipitation (IP) buffer (50 mM Tris-HCl, pH 7.4, 150 mM NaCl, 1 mM EDTA, and 0.5% Nonidet P-40 plus protease inhibitors) and incubated at 4° C. overnight with B8H10 monoclonal antibody (MediMabs) crosslinked to protein G beads (Dynabeads, Invitogen) using dimethyl pimelimidate (Pierce) according to the manufacturer's instructions. The beads were magnetically isolated and washed three times with IP buffer. Samples were eluted by boiling in 2× sample buffer. Both bound and unbound IP fractions were then separated by SDS-PAGE, transferred to a nitrocellulose membrane and probed with goat anti-SOD1 antibody (C-17; Santa Cruz Biotechnology).
To test the function of the exposed ^106LSGDHC^111 epitope on misfolding of other SOD1 molecules, the effect of the SE-12 (SEQ ID NO: 7) peptide on SOD1 misfolding was tested using immunoprecipitation with a mAb (B8H10) that specifically recognizes misfolded SOD1. […] The effect of the peptide was more prominent at 4° C., when the intrinsic rate of SOD1^WT misfolding is low, than at 37° C. […]

[6] = 1:12 SOD1^G93A:peptide molar ratio

T2 sequence (P00441 whole entry): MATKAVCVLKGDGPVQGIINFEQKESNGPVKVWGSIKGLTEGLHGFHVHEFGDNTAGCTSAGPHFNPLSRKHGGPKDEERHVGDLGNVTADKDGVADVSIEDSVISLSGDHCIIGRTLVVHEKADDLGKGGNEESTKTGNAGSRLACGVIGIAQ
T1 sequence (P00441 2-154 G94A): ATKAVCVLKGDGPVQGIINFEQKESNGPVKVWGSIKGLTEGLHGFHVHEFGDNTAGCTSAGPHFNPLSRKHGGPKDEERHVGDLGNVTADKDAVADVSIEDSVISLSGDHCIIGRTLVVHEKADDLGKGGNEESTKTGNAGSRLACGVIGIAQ

Sequence	ThT response / amyloid-like aggregation of SOD1^G93A on co-incubation with peptide ([1]; 37° C., continuous shaking)	morphology of SOD1^G93A aggregates by TEM versus SOD1^G93A alone [2]	change in fluorescence of labeled SOD1^G93A (peptide binding) [3]	change in fluorescence of labeled SOD1^WT (peptide binding) [4]	ThT response of SOD1^G93A ([1]; low peptide:SOD1 molar ratios, 37° C., continuous shaking)	ThT response of SOD1^G93A ([1]; peptide:SOD1 molar ratios higher than 3, compared to SOD1^G93A alone)	morphology of SOD1^G93A aggregates by TEM [2, 6]	morphology of SOD1^G93A aggregates by TEM ([2]; low peptide:SOD1 molar ratio (1:0.2 SOD1^G93A:peptide))	amount of misfolded SOD1^WT immunoprecipitated by B8H10 [5]
DKDGVADVSIEDSV (listed as Homo sapiens) [SE-20, SOD1-derived peptide]	formation of amyloid-like (ThT-responsive) aggregates	morphology was different							
DKDGVADVSIEDSVISLSGD (listed as Homo sapiens) [SE-11, 20-mer peptide, SOD1 aa; 90-109]			effect was obtained	only with SOD1^G93A	inhibited the ThT response of SOD1^G93A	significantly enhanced ThT response	large spherulites (0.5-1.0 μm diameter)	suppressed the formation of characteristic fibril-like aggregates	
EDSVISLSGDHCIIGRT (listed as Homo sapiens) [SE-21, SOD1-derived peptide]	did not prevent aggregation	different morphology (size)							
IIGRTLVVHEKADD (listed as Homo sapiens) [SE-19, SOD1-derived peptide]	formation of amyloid-like (ThT-responsive) aggregates	morphology was different							
LSGDHCIIGRTLVVHEKADD (listed as Homo sapiens) [SE-12, 20-mer peptide, SOD1 aa; 106-125]	inhibited the SOD1^G93A-triggered ThT response and fibril formation in a dose-dependent manner		increase in fluorescence was observed	increase in fluorescence was observed			amorphous aggregates were detected by TEM		significantly increased the amount of accumulated misfolded species
